Consider 3 compounds from publication PMC3839904, “The α-Proteobacteria Wolbachia pipientis Protein Disulfide Machinery Has a Regulatory Mechanism Absent in γ-Proteobacteria” (PLoS ONE, 2013).

The target in one test is T1, α-DsbB (Wolbachia pipientis, UniProt Q73G63).
T1 construct: gene WD_1099; full-length integral membrane protein, pET21a (NdeI/XhoI) in E. coli BL21(DE3)pLysS, beta-DDM solubilised, TALON and size exclusion purified
T1 sequence (Q73G63 1-173): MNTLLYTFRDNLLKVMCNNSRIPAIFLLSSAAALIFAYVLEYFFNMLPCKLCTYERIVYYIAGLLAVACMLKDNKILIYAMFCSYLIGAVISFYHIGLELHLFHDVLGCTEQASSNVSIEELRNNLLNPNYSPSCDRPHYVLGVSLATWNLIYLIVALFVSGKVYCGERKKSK
Briefly: UQ1 reduction, absorbance at […] nm; AMS gel shift. Format: biochemical. Particulars: reduced α-DsbA1 […] as electron donor, pH […] beta-DDM, […]°C.

Test [1] concerns the target Wolbachia pipientis wMel α-DsbB (integral membrane protein) (Wolbachia pipientis wMel).
For test [2] the target is unchanged. The source holds these as a separate data set.
Test [3] deals with α-DsbB [SSCC] (the two cysteines of the first periplasmic loop replaced with serines) (Wolbachia pipientis wMel).
The target of test [4] is Wolbachia pipientis wMel α-DsbB (integral membrane protein) (Wolbachia pipientis wMel). This is another data set of the same source.
The target is the same in test [5]. The source holds these as a separate data set.

Take `COC1=C(OC)C(=O)C(CC=C(C)C)=C(C)C1=O` [UQ1, ubiquinone-1]: the “UQ1 reduction, absorbance at 275 nm; AMS gel shift” value at α-DsbB is given as “UQ1 reduction was coupled with α-DsbB-mediated oxidation of α-DsbA1”.

The compound “Wolbachia pipientis wMel α-DsbA1 (enzyme)” yielded an initial rate of oxidation of the peptide substrate (time-resolved fluorescence) by α-DsbA1 with α-DsbB membranes (endogenous UQ), pH 5.5 in test [1] of 0.00477 min^-1. Besides, in test [2], the initial rate of UQ1 reduction (absorbance at 275 nm) with α-DsbB (50 nM), UQ1 (30 µM) and reduced α-DsbA1 (30 µM), 30°C turned out to be 0.236 min⁻¹. Besides, the reverse reaction: gel-shift of the oxidation of reduced α-DsbB [SSCC] by oxidized α-DsbA1, within 15 min (% of α-DsbB [SSCC] oxidized) in test [3] stood at 50.

“α-DsbA1CA (α-DsbA1 variant with the cysteines of the non-catalytic disulfide replaced with alanine) (enzyme)”: the initial rate of UQ1 reduction (absorbance at 275 nm) with α-DsbB, UQ1 and reduced α-DsbA1CA, 30°C in test [2] was 0.463 min⁻¹. In test [4], this compound registered an initial rate of oxidation of the peptide substrate (time-resolved fluorescence) by α-DsbA1CA with wt α-DsbB membranes of 0.00621 min⁻¹. The gel-shift (AMS labelling) of the redox state of reduced α-DsbA1CA with α-DsbB and UQ1; oxidised variant against oxidised wt at 30 sec, 2 min, 5 min (3, 2 and 1.3 fold) in test [5] is 3 fold.
